# Measured values: the nanobody polyreactivity screen of Harvey et al. (2022)
# Experiment: yeast display, Sf9 membrane polyspecificity reagent, FACS + sequencing; frameworks hold sequencing errors
# In short: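 In a synthetic yeast display library (Saccharomyces cerevisiae BJ5465), nanobody expression was induced with galactose for 36–48 hours. FACS gates were set low and high (top ~1%) using anti-HA fluorescence for expression and streptavidin fluorescence for binding of the Sf9 membrane reagent. Each polyreactivity label is drawn from the gate of origin.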
row,Sequence,polyreactivity (PSR sort gate)
1,QVQLVESGGGLVQAGGSLRLSCAASGITFGSYAMGWYRQAPGKERELVATISKSGGSTYYADSVKGRFTISRDNEKNTVYLQMNSLKPEDTAVYYCARRYVAKRMDFWGQGTQVTVSS,high polyreactivity
2,QVQLVESGGGLVQAGGSLRLSCAASGRTLLPNAMGWSRQAPGKERELVASIRDGGDTNYADSVKGRFTISRDNAKNTVYLQMNSLKPEDTAVYYCNADWWAYYSFGHEYWGQGTQVTVSS,low polyreactivity
3,QVQLVESGGGLVQAGGSLRLSCAASGSTFNRNAMGWYRQAPGKERDLVAAISWRGDTTSYADSVKGRSTISRDNAKNTFYLQMNSLNPEDTAVYYCATAHDYAFYRYWYVPSEYNYWGQGTQVTVSS,low polyreactivity
4,QVQLVESGGGLVQAGGSLRLSCAASGSTFSNVMGWYRQAPGKEREFVARISKSGGSTYYADSVKGRFTISRDNAKNSVYLQMNSLKPEDTAVYYCATGRFRRTEYGGRYDYWGQGTKVTVSS,high polyreactivity
5,QVQLVESGGGLVQAGGSLRLSCAASGRTFYYYAMGWYRQAPGKERELVADITYSGGSTYYADSVKGRFTISRDNAKNTVYLQMNSLKPEDTAVYYCAARVTVSHWPYYYDSYDYWGQGTQVTVSS,low polyreactivity
6,QVQLVESGGGLVQAGGSLRLSCAASGRIGYNVMGWYRPAPGKERELVADISRGGGRTYYADSVKGRFTISRDNAKNTVYLQMNSLKPEDTAVYYCNAVTYYVDGGWYDYDYWGQGTQVTVSS,high polyreactivity
7,QVQLVESGGGLVQAGGSLRLSCAASGSIIKRNAMGWSIQAPGKERELVASISSGGTYYADSVKGRFTISRDNAKNTVYLQMNSLKPEDSAVYYCATDRGVIYRGISGYIHYDYWGQGTQVTGSS,low polyreactivity
8,QVQLVDSGGGLVQAGGSLRLSCAASGRTFGVNAMGWYRQAPGKERELVAAISSGSSTYYADSVKGRFTISRDNAKNTVYLQMNSLKPEDTAVYYCAAKYWSYYQSRSLSYRYFYWGQGTQVTVSS,low polyreactivity
9,QVQLVESGGGLVQAGGSLRLSCAAYGIIFRLKARGSNRQSPGKERELVAAITRRGGTTYYADSVKGRFTISRDNAKYTVYLQMNSLKPEDTAVFFCNTYYYWQYDWGQGTQVSVSS,high polyreactivity
10,QVQLVESGGGLVQAGGSLRLSCAASGSTFRQYSMGWYRQAPGKERELVAAISWSGGSTYYADSVKGRFTISRDNAKNTVYLQMNSLKPEDTAVYYCAAGRGGHRYKVGYWGQGTQVTVSS,high polyreactivity
11,QVQLQESVGGLVHAGGSLRLSCAASGSISAVGAMGWYRQAPGKEREFAASVNWGTNTNYADSVKGRFTISRDNAKNTLYLQMNSLKPEDTAVYYCAVLPDWETRHDYWGHGTQVTVSS,low polyreactivity
12,QVQLVESGGGLVQAGGSLRLSCAASGITFGYYAMGWYRQAPGKERELVAAITYSGGSTYYADSVKGRFTISRDNAKNTVYLQMNSLKPEDTAVYYCNADWWAYYSFGHEYWGQGTQVTVSS,low polyreactivity
13,QVQLVESGGGLVQAGGSLRLSCAASGSTFRGYAMGWYRQATGKERELVAAISSSGGRTYYADSVKGRFTISRDNAKNPVYLQMNSLKREDTAVYYCNAASKNSVRYAYQNYDYRGQGTQVTVSS,high polyreactivity
14,QVQLVESGGGLVQAGGSLRLSCAASGNTFSGTTMGWYRQAPGKERELVAAIRFTGGSTTYADSVKGRFTISRDNAKNTVYLQMNRLKPEDTAVYYCNTDWVSFRSIYHEYDYWGQGTQVTVSS,low polyreactivity
15,QVQLVESGGGLVQAGGSLRLSCAASGFIFRGYAMGWYRQAPGKERELVAAISRRGGSTYYADSVKGRFTISRDNAKNTVYLQMNSLKPEDTAVYYCNARIRYVYWHSYDYWGQGTQVTVSS,high polyreactivity
16,QVQLVESGGGLVQAGGSLRLSCAASGRILEYNAMGWYRQAPGKERELVAAITSDGSTNYADSVKGRFTISRDNAKNTVYLQMNSLKPEDTAVYYCNTRYSLYTKYAYYDELDYWGQGTQVTLSS,low polyreactivity
17,QVQLVESGVGLVQAGGSLRLSCAASGRIFRWYAMGWYRQAPGKERELVASITWNGGSTYYADSVKGRFTISRDNAKNTVYLQMNSLKPEDNAVYYCAVPFYRGPEMGYWGQGTQVTVSS,high polyreactivity
18,QVQLVESGGGLVQAGGSLSLSCAASGSIFFVNAMGWYRQAPGKERELVAAISRSGGRTYYADSVKGRFTISRDNAKNTVYFQMNSLKPEDTAVYYCAAEYNPGSYFTYDYWGQGTQVTVSS,low polyreactivity
19,QVQLVESGGGLVQAGGSLRLSCAASGSTFAVNAMGWYRQAPGKERELVAVITSSGGRTYADSVKGRFTISRDNAKNTVYLQMNSLKPEDTAVYYCAAVQGKVRGGYYWGQGTQVTVSS,high polyreactivity
20,QVQLVESGGGLFQAGGSLRVSCAASGSTFYLYAMGWSRQAPGKEREWVAAISRRGGTTNYADSVKGRFTISRDNAKNSVYLQMNSLKPEDTAVYDCGADYQSVGGAEYDYWGQGTQVTVSS,high polyreactivity

row,Sequence,polyreactivity (PSR sort gate)
1,QVQLVESGGGLGQSGGSLRLSCAATGSTYKYNAMGWNRTAPGKERELVPAISRGGRTNYADSVKGRFTISRDNAKNTVYFQMNILKPEDTAVYYCAKDVAGLFHVGSLYYYWGQGTQVNVSS,low polyreactivity
2,QVQLVDSGGGLVQAGGSLRLSCAASGITFYYYAMGWYRQAAGKERELVAAISSRGGSTYYADSVKGRFTISRDNAKNTVYLQRNSLKPEDTAVYYCAALYGVSEEDDYWGQATQVTVSS,high polyreactivity
3,QVQLVESGGGLVQAGGSLRLSGAASGRTFRGNVMGWYRQAPGKEREFVAAITKSDGSTYYADSVKGRFTISRDNAKNTVYLQMNSLKPEDTAVYYCAARTARTGWPWFRYDYWGQGTQVTVSS,low polyreactivity
4,QVQLVESGGGLVQAGGSLRLSCAASGSIFDVYTMGWYRQAPGKERELVAAISWSGGSTFYADSVKGRFTISRDNAKNTVYLQMNSLKPEDTAVYYCAARSYWRQYGRYGSWGQGTQVTVSS,high polyreactivity
5,QVQLVESGGGLVQAGGSLRLSCAASGLTFFRNAMGWYRQAPGKEREFVAGITSTDGSTYYADSVKGRFTISRDNAKNTVYLQMNSLKPEDTAVYYCAAAYRVRGRTYDSWGQGTQVTVSS,high polyreactivity
6,QVQLVESGGGLFQAGGSLRISCAASGTFVTYMGWYRQAPGKERELVAAIRNGGSTNYADSVKGRFTISRDNAKNTVYLQMNSLKPDDTAVYYCAARVTYSRGYRGGSRNKYDYWGQGTQVTLSS,low polyreactivity
7,QVQLVESGGGLVQAGGSLRLSCAASGRIFWGNGMGWYRQAPGKEREFVAAISKSGGSTYYADSVKGRFTISRDNAKNTVYLQMNSLKPEDTAVYYCAARAPYSYSGYGYWGQGTQVTVSS,high polyreactivity
8,QVQLVESGGGLVQAGGSLRLSCAASGSTFAANAMGWYRPAPGKERELVAAITSSGGSTYYADSVKGRFTISRDNAKNTVYLQMNSLKPEDTAVYYCNKDIERYVRIYDSWGQGTQVTVSS,low polyreactivity
9,QVQLVESGGGLVQAGGSLRLSCAASGYIVRNAMGWYRQAPGKERELVAAISRRGGSTYYADSVKGRFTISRDNAKNTVYLQMNSLKPEDTAVYYCAKDKVIPSFDADYYYWGQGTQVTVSS,high polyreactivity
10,QVQLEESGGGLVQAGGSLRLSCAASGGNFPVNAIGWYRQAPGKERELVATITYDGGNTYYADSVKGRFTISRDNAKNTVYLQMNSLKPEDTAVYYCAARTPQRSEWTKYGYWGQGTLVTVSS,low polyreactivity
11,QVQLVESGGGLVQAGGSLRLCCAAYGSIFARNSMGWYRHAPGKERELVAVITTGGRTYYADSVKGRFTISRDNAKNTVYLQMNSMKPEDTAVYYCATRVIYGNSGGYWGKGTQVTVSS,high polyreactivity
12,QVQLVESGGGLVQAGGSLRLSCAASGRTFYKYAMGWYRQAPGKERELVAAISGGGTTNYADSVKGRFTISRDNAKNTVYLQMNSLKPEDTAVYYCNAARTRWATGYDYWGQGTQVTVSS,low polyreactivity
13,QVQLVESGGGLVHAGGRLRLSCAASGSMFYPYAMGWYRQAPGKERELVAAISRSGGSTRYADSVKGRFTISRDHAQNTVYLQMNSLKPEDTAVYYCAVRVFYGVGLIGYYYWGQGSQVTVSS,high polyreactivity
14,QDHLVESGGGLVQAGGSLRLICAANGRTFRRYAMGWYRQAPGKERELVATITSGGSTNYADSVKGRFTISRDNAKNTVYLQMNSLKPQDTAVYYCAARHGESHYDYWGQGTQVTVSS,low polyreactivity
15,QVQLVESGGGLVQAGGSLRLSCAASGRIFYWNTMGWYRQAPGKEREFVAAILSRGDTTYYADSVKGRFTISRDNAKNTVYLQMNSLKPEDTAVYYCAARPVRYHYVPSMYYWGQGTQVTVSS,high polyreactivity
16,QDQLVESGGGLVQAGGSHRLTCAATGITLDNYVMGWYRQAPRTERELVAAISRTSGRTYYADSVKGRFTISRDNAKNTVYLQMHSLKPEDTGVYYCNARSRGRASGYDYWGHGTQVTVSS,high polyreactivity
17,QVQHVESGGGLVQEGGRLRLSCAASGITFGANTMGWSRQAPGKERELVAAITISGGITHYADSVKGRFTISRDNAKNTVYLQMNSLKPEDTAVYYCAAGAYWRLYPYRLRNVGRMYYWGQGTQVTVSS,low polyreactivity
18,QVQLVESGGGLVQAGGSLRLSCAASGNTFAYYAMGWYRQAPGKERELVAAITSTGVRTYYADSVKGRFTISRDNAKNTVYFQMNSLKPEDTAVYYCNAEYWRVWYLHYYYEYDYWGQGTQVTVSS,high polyreactivity
19,QVQLVESGGGLVQAGGSLRLSCAASGSIFPVNVMGWYRQAPGKERELVADITSTGTYYADSVKGRFTISRDNAKNTVYLQMNSLKPEDTAVYYCAKAGGSWYRRYYYWGQGTQVTVSS,high polyreactivity
20,QVQHVESGGGLVQAGGSLRLSCAASGLTIWYYAIGWYRQAPGKEREFVAAITSRGGDTYYADSVKGRFTISRDNAKNTVYLQLNSLKPEDTGVYYCAVRPRYYGTYRYYYWGQGTQVTVSS,high polyreactivity
